The MegaScale stability set (Tsuboyama et al. 2023)

B1: 5KPH (parent)
chain: EEKRQVKQVAKEKLLEQSPNSKVQVRRVQKQGNTIRVELELRTNGKKENYTVEVERQGNTWTVKRITRT

Variants of: B1
Assay: folding stability dG (cDNA display proteolysis); higher = more stable
Conditions: PBS, room temperature

Folding stability dG [kJ/mol] of substitutions, site by site:
E40: N 13.1, P 1.49, Q 16.3, R 14.5, S 15.6, T 17.3, V 17.7, W 16.5, Y 16.3
L41: A 15.2, C 14.1, D 8.52, E 6.96, F 11.3, G 9.95, H 9.14, I 15, K 11.4, M 16.3, N 7.11, P 2.21, Q 12.2, R 11.1, S 13.6, T 14.1, V 17, W 9.99, Y 9.85
R42: A 15, C 14.8, D 17.6, E 17.3, F 19.5, G 12.7, H 16.4, I 17.9, K 14.9, L 17.1, M 16.1, N 17.5, P 5.35, Q 15.9, S 16.4, T 18.4, V 17.3, W 19.1, Y 18.6
T43: A 15.6, C 13.6, D 15.3, E 15.8, F 16.2, G 15, H 16.7, I 15.6, K 15.5, L 16.5, M 15.4, N 16.2, P 9.07, Q 16.4, R 14.5, S 16.1, V 15.3, W 15.5, Y 16.2
N44: A 16, C 14.7, D 15.9, E 16.8, F 15.5, G 15.9, H 15.9, I 14.5, K 15.8, L 16, M 16.1, P 14.2, Q 15.3, R 15.3, S 15.7, T 13.7, V 14.5, W 15.4, Y 15.8
G45: A 14.6, C 13.7, D 14.9, E 14.6, F 16.6, H 14.4, I 12.2, K 14.2, L 14.3, M 14.7, N 14.8, P 8.18, Q 14.6, R 14.3, S 15.7, T 14.6, V 11.9, W 15.3, Y 14.9
K46: A 15.3, C 15.1, D 14.4, E 14.4, F 15.9, G 14.6, H 16.3, I 16.9, L 15.9, M 16.3, N 15.9, P 11, Q 16.1, R 16.8, S 15.6, T 16.1, V 16.7, W 15.5, Y 16.5
K47: A 15.5, C 15.2, D 12.2, E 13.1, F 16.1, G 12.7, H 16.5, I 17.3, L 16.9, M 15.8, N 15, P 13.8, Q 15.2, R 16.8, S 16.4, T 17, V 17, W 15.7, Y 15.9
E48: A 15, C 14.1, D 14, F 14.9, G 11.2, H 14, I 14.7, K 13.5, L 14.2, M 14.9, N 12.9, P 5.14, Q 15.5, R 14, S 15, T 15.3, V 15.2, W 16.2, Y 15.7
N49: A 15.6, C 15.6, D 14.9, E 15.1, F 17.3, G 15.9, H 16.9, I 17.7, K 17.7, L 18.4, M 17.5, P 11.3, Q 16.4, R 17.1, S 16.1, T 17.3, V 17, W 17.6, Y 18
Y50: A 12.5, C 11.7, E -0.339, F 15.7, G 2.95, H 8.79, I 13.3, K 5.2, L 11.9, M 10.8, N 2.77, P -2.82, Q 5.58, R 5.01, S 5.22, T 6.15, V 14.9, W 17.3
T51: A 15, C 15, D 12.6, E 16.2, F 15.3, G 10.5, H 13.6, I 17.3, K 12.6, L 16.7, M 16.5, N 12.9, Q 14.9, R 13.9, S 15.7, V 17.7, W 16.7, Y 15.7
V52: A 13.8, C 12.2, F 10.5, G 3.56, I 15.3, L 14.6, M 13.5, Q -1.94, S 5.07, T 6.75, W 6.61, Y 7.46
E53: A 12.5, C 14, D 15.7, F 16.8, G 8.96, H 14.5, I 17.4, K 10.6, L 16.9, M 15, N 11.6, P -3.4, Q 14.2, R 11.3, S 13.9, T 15.1, V 16.5, W 17.7, Y 17.6
V54: A 11, C 14.1, D -2.64, E 5.56, F 17, G 6.02, H 3.41, I 16.4, K 5.35, L 16.5, M 16.1, N 3.03, Q 3.8, R 0.146, S 6.81, T 9.33, W 11.5, Y 12.3
E55: A 14.4, C 14, D 13.4, F 16.4, G 13.4, H 15.3, I 17.2, K 13.4, L 14.8, M 16.2, N 12.2, P -1.59, Q 15.5, R 13, S 14.9, T 15.5, V 17.1, W 16.4, Y 16.4
R56: A 13.6, C 15, D 10.1, E 12.1, F 16, G 13.3, H 14.2, I 13.8, K 17.2, L 16.1, M 15.1, N 12.4, P 12.3, Q 14.7, S 13.6, T 11.8, V 13.6, W 17.4, Y 15.6
Q57: A 15.9, C 14.8, D 17, E 17.4, F 16.2, G 13.2, H 16, I 17.8, K 16, L 16.6, M 16.3, N 16.3, P 9.17, R 15.6, S 16.3, T 16.9, V 17.5, W 16, Y 16.9
G58: A 13.9, C 13.2, D 15.7, E 15.5, F 14.3, H 14.2, I 12, K 14.2, L 13.9, M 13.6, N 15.5, P 9.41
